Experimental data from patent publication US20190106487A1 (Sanofi, published 2019).

B1: P013.S.02.B.D05 (antibody, V domains shown)
VH: QQQLVESGGGLVKPGASLTLTCKASGFSFSSGYYMCWVRQAPGKGLEWIACIGMGSGKTYYASWAKGRFTISKTSSTTVTLQMTSLTAADTATYFCARKDGSGNEHYNLWGPGTLVTVSS
VL: DIVMTQTPASVEAAVGGTVTIRCQASQSISSYLAWYQRKPGQPPKVLIYKASTLASGVSSRFKGSGSGTEYTLTISDLESADAATYYCQQGYASSGVDNVFGGGTEVVVK
notes: rabbit monoclonal antibody; also called P013.A.00086.B09
B2: P013.S.01.B.E05 (antibody, V domains shown)
VH: QSLEESGGDLVKPGASLTLTCTASGISFSSSDFMCWVRQAPGKGLEWIACIYAGSSVSIYYATWAKGRFTISKASSTTVTLQMASLTVADTATYFCARSTGSVGRGFNLWGQGTLVTVSS
VL: AQVLTQTPSPVSAAVGGTVTISCQASQSVYNSNHLSWYQQKPGQPPRLLIYSASTLASGVPSRFKGSGSGTQFTLTISGVQSDDAATYYCQGEFSCVSADCIAFGGGTEVVVK
notes: rabbit monoclonal antibody; also called P013.A.00086.F02
B3: P013.S.01.B.D04 (antibody, V domains shown)
VH: QEQLKESGGRLVTPGGSLTLTCTVSGFSLSIYAMGWFRQAPGKGLEWIGDIYPGSDSTWYASWAKGRFTISKTSTTVDLKITSPTTEDTATYFCAREIDAGYVGYGFDLWGQGTLVTVSS
VL: AQALTQTPSSVSAAVGGTVTINCQSSQSVYSDYLAWYQQKPGQSPKLLIYKASKLASGVPSRFKGSGSGTEFTLTISGVQSDDAATYYCQATYYSVGWYRAFGGGTEVVVK
notes: rabbit monoclonal antibody; also called P013.A.00088.B09
B4: P013.S.01.B.C03 (antibody, V domains shown)
VH: QSVEESGGRLVTPGTPLTLTCTVSGIDLSNYAMSWVRQAPGKGLEWIGSVISGGSTYYATWARGRFTISKSSTTVDLKMTSLTTEDTATYFCARGCPGYNGDKYTFDLWGPGTLVTVSS
VL: AFEMTQTPSSVSEPVGGTVTIKCQASQSIYNYLSWYQQKPGQRPKLLIYRASTLASGVPSRFKGSGSGTEFTLTISGVESADAATYYCQQGATSYDIENPFGGGTEVVVK
notes: rabbit monoclonal antibody; also called P013.A.00133.D11
B5: P013.S.02.B.E04 (antibody, V domains shown)
VH: QSLEESGGDLVKPGASLTLTCTASGFSLSSGGMSWVRQAPGKGLGWIGYINTGSGSTYYASWVNGRFTISKTSSTTVSLQMTSLTAADTATYFCAGGLPSDLWGPGTLVTVSS
VL: DIVMTQTPSSVEAAVGGTVTIKCQASQSINSRLAWYQQKPGQPPKLLIYSASTLASGVSSRFKGSGSGTEFTLTISDLESADGATYYCLSHYLTSSSSYGDAFGGGTEVVVK
notes: rabbit monoclonal antibody; also called P013.A.00088.A02
B6: P013.S.01.B.B04 (antibody, V domains shown)
VH: QSVEESGGRLVTPGTPLTLTCTVSGIDLDNYAMGWVRQAPGKGLEYIGVISSDGFFYDASWAKGRFTISKASSTTVDLKMTGLTPEDTATYFCARDRGTSTGSLDLWGQGTLVTVSS
VL: ALVMTQTPASVSEPVGGTVTIKCQASENIGNGLAWYQQKPGQPPNLLIYGASTLASGVPSRFSGSGYGTEFTLTVSDLESGDAATYYCQCTYWNPDYIGGAFGGGTEVVVT
notes: rabbit monoclonal antibody; also called P013.A.00086.E02
B7: P013.S.02.B.H04 (antibody, V domains shown)
VH: QSVEESGGRLVKPDETLTLTCTVSGIDLSSYAMGWVRQAPGKGLEYIGIISSSGRTYYANWAKGRFTISKASSTTVDLKITSPTTEDTATYFCARLITVDYYIYDYFNLWGQGTLVTVSS
VL: AYDMTQTPASVEAAVGGTVTIKCQASQSISSYLSWYQQKPGQPPKLLIYGASTLASGVPSRFKGSGSGTEYTLTISGVESDDAATYYCQQGYSYNNVDNTFGGGTEVVVK
notes: rabbit monoclonal antibody; also called P013.A.00029.F11
B8: P013.S.01.B.A02 (antibody, V domains shown)
VH: QSVEESGGRLVTPGTPLTLTCTVSGIDLSSYAMGWVRQAPGKGLEYIGVITSSATTYYASWAKGRFTISKTSSTTVDLRVTSLTTEDTATYFCARGGPGYSTNTHYAFDPWGPGTLVTVSS
VL: AFEMTQTPSSVSEPVGGTVTIKCQASQSIYIYLSWYQQKPGQRPKLLIYDASKLASGVPSRFSGSGSGTEFTLTISGVQSDDAATYYCQQGATTYNVDNVFGGGTEVVVK
notes: rabbit monoclonal antibody; also called P013.A.00003.H11
B9: P013.S.02.B.F05 (antibody, V domains shown)
VH: RSLEESGGDLVKPGTSLTLTCTASGFSFSGNYYMCWVRQAPGKGLEWIACIVVGSGGNTYYAGWAKRRFTISKTSSTTVTLQMTSLTAADTATYFCASGSYDDYGDYWYFTLWGQGTLVTVSS
VL: AIDMTQTPSPASAGVGDTVTINCQASENIYNFLAWYQQKPGHSPKLLIYVASKLASGVPSRFKGSGSGTQFTLTISDVQSDDAATYYCQQTYRYNDGDTAFGGGTEVVVK
notes: rabbit monoclonal antibody; also called P013.A.00109.B04
B10: P013.S.01.B.E03 (antibody, V domains shown)
VH: QSLEESGGRLVTPGTPLTLTCTASGFSITNYHISWVRQAPGKGLEWIGYIYAGRDFTYYANWAEGRFTISKTSTTVDLQVTVPTTEDTATYFCARDGGSPNWTLDLWGQGTLVTVSS
VL: DVVMTQTPASVSEPVGGTVTINCQASESISDYLSWYQQKPGQPPKLLIYRASTLESGVSSRFKGSGSGTQFTLTISDLESADAATYYCQSNYYDSRGNAFGGGTEVVVK
notes: rabbit monoclonal antibody; also called P013.A.00015.E03

How the values were obtained:
[1] = target: T1, human IL-1RAcP on 293T/17-FR cells (human, UniProt Q9NPH3 21-570); assay: cell-based or functional assay
T1 sequence (looked up): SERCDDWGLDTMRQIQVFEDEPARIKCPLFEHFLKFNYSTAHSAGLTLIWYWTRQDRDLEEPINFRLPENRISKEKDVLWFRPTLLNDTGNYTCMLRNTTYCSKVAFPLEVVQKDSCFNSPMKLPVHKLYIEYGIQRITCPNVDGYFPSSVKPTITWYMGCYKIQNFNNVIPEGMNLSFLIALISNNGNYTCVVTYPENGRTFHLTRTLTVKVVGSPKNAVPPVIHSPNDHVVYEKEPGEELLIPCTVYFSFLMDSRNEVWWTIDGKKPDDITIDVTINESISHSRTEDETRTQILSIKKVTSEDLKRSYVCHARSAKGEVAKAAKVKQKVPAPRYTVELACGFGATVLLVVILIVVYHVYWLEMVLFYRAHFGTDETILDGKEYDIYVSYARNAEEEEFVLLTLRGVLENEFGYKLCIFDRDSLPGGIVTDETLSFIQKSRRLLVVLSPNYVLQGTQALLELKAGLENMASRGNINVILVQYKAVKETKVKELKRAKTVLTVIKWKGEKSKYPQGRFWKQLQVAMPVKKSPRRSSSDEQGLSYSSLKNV

mIL1RAcP-Fc [2] = target: T2, mIL1RAcP-Fc (murine, UniProt Q61730 21-359); assay: ELISA, primary supernatant, coated mu-IL-1RAcP-Fc
T2 construct: also called P013_04; P013-04
T2 sequence (looked up): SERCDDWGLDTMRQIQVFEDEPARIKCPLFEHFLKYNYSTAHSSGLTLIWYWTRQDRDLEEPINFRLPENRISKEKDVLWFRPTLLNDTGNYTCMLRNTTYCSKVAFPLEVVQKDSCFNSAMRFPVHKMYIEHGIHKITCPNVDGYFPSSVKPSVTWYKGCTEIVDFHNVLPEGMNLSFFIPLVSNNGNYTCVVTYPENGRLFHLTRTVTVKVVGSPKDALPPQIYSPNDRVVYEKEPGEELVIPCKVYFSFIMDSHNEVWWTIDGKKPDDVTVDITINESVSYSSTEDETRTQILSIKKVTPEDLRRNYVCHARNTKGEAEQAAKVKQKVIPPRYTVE

rhIL-1RAcP/Fc Chimera [3] = target: T3, rhIL-1RAcP/Fc Chimera (human, UniProt Q9NPH3 21-359); assay: ELISA, primary supernatant, coated hu-IL-1RAcP-Fc
T3 construct: also called P013_03; P013-03
T3 sequence (looked up): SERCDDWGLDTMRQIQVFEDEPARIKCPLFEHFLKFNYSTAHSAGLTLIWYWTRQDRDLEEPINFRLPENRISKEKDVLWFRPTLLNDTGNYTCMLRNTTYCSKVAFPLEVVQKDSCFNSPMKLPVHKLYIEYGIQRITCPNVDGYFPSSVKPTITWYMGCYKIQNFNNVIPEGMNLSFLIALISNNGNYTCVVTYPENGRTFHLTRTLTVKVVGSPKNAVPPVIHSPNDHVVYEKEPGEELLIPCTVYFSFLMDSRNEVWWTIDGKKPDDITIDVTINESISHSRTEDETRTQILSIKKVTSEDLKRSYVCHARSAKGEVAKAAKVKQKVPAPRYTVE
In short: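 Plates coated with 0.5 μg/mL Fc-tagged human IL-1RAcP; rabbit B-cell supernatant antibodies detected by peroxidase anti-rabbit IgG Fab2 and TMB, absorbance 450/620 nm. Parallel IL12Rβ1-Fc coating served as counterscreen to exclude tag binders.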

mIL1RAcP-Fc [4] = target: T2, mIL1RAcP-Fc; assay: ELISA, recombinant purified mAb
rhIL-1RAcP/Fc Chimera [5] = target: T3, rhIL-1RAcP/Fc Chimera; assay: ELISA, recombinant purified mAb

Row | Binder | functional reporter gene assay (% inhibition), 0.04 µg/mL mAb [1] [%] | functional reporter gene assay (% inhibition), 0.2 µg/mL mAb [1] [%] | functional reporter gene assay (% inhibition), 1 µg/mL mAb [1] [%] | functional reporter gene assay (% inhibition), 5 µg/mL mAb [1] [%] | primary supernatant functional assay (% inh.), NF-kB luciferase reporter [1] [%] | mu-IL1RaP ELISA (OD) (mIL1RAcP-Fc [2]) | hu-IL1RaP ELISA (OD) (rhIL-1RAcP/Fc Chimera [3]) | EC50 (mIL1RAcP-Fc [4]) [µg/mL] | EC50 (rhIL-1RAcP/Fc Chimera [5]) [µg/mL]
1 | B1 | 1 | 19 | 20 | 13 | 42 | 3.3 | 3.2 | 0.206 | –
2 | B2 | 26 | 61 | 81 | 93 | 98 | -0.1 | 3.6 | – | 0.966
3 | B3 | 27 | 67 | 87 | 89 | 95 | 0 | 3.9 | – | 0.247
4 | B4 | 54 | 77 | 84 | 90 | 83 | 2.3 | 3.2 | 0.332 | 0.032
5 | B5 | 11 | 9 | 8 | -6 | -37 | 3.5 | 3.6 | 0.385 | –
6 | B6 | 42 | 83 | 93 | 99 | 97 | 0.5 | 3.5 | – | 0.042
7 | B7 | 7 | -6 | 15 | 4 | 52 | 1.7 | 3.2 | 0.644 | –
8 | B8 | 46 | 94 | 95 | 98 | 92 | 1.2 | 3.5 | 0.025 | 0.042
9 | B9 | 15 | 5 | 11 | -2 | 40 | 0.4 | 0.1 | 0.044 | –
10 | B10 | 54 | 63 | 60 | 68 | 73 | 0.1 | 3.4 | – | 0.05
